Publication PMC3173486

B1: RpSP-D multimers (natural protein)
chain: AEMKTYSQRAVANACALVMCSPMENGLPGRDGRDGREGPRGEKGDPGLPGAVGRAGMPGLAGPVGPKGDNGSTGEPGAKGDIGPCGPPGPPGIPGPAGKEGPSGQQGNIGPPGTPGPKGETGPKGEVGALGMQGSTGARGPAGLKGERGAPGERGAPGSAGAAGPAGATGPQGPSGARGPPGLKGDRGPPGERGAKGESGLPGITALRQQVETLQGQVQRLQKAFSQYKKVELFPNGRGVGEKIFKTGGFEKTFQDAQQVCTQAGGQMASPRSETENEALSQLVTAQNKAAFLSMTDIKTEGNFTYPTGEPLVYANWAPGEPNNNGGSSGAENCVEIFPNGKWNDKACGELRLVICEF
B2: RpSP-D trimers (natural protein)
chain: B1 chain

Target: HA of all the influenza A/H3N2 viruses tested with RpSP-D multimers and trimers

| Binder | HI assay: minimal inhibitory concentration of RpSP-D multimers [ng/100 µl] | HI assay: minimal inhibitory concentration of RpSP-D trimers [ng/100 µl] |
| --- | --- | --- |
| B1 | 8.7 |  |
| B2 |  | 124 |
